Results from the supplement of paper PMC9233669.
This sample holds only a part of the variants without activity.

Legend:
[1] = test system: biotinyl-Val-oxazolone; assay: self-aminoacylation, catalytic enhancement (BVO) (fold over background); higher = more active; k-Seq, kA / k0A0; sequences stand for … in GGGAAUGGAUCCACAUCUACGAAUUC…UUCACUGCAGACUUGACGAAGCUG
Summary of the method: (§1)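 Mutagenized RNA pools with a 21-nt variable region (0.43 μM) reacted with each biotinyl-aminoacyl-oxazolone at 2–1250 μM. Reactions ran in 50 μL HEPES/NaCl/KCl/MgCl2/CaCl2 buffer with 5% acetonitrile, pH 6.9–7.0, for 90 minutes at room temperature. Streptavidin-captured RNA was quantified by triplicate qPCR and Illumina sequencing, and per-sequence fraction reacted was fit to a pseudo-first-order model with 1000 bootstraps. Catalytic enhancement is median kA divided by the uncatalyzed rate, the low-activity peak of a bimodal Gaussian fit.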

[2] = test system: biotinyl-Leu-oxazolone; assay: self-aminoacylation, catalytic enhancement (BLO) (fold over background); higher = more active; k-Seq, kA / k0A0; sequences stand for … in GGGAAUGGAUCCACAUCUACGAAUUC…UUCACUGCAGACUUGACGAAGCUG
Summary of the method: as §1

[3] = test system: biotinyl-Met-oxazolone; assay: self-aminoacylation, catalytic enhancement (BMO) (fold over background); higher = more active; k-Seq, kA / k0A0; sequences stand for … in GGGAAUGGAUCCACAUCUACGAAUUC…UUCACUGCAGACUUGACGAAGCUG
Summary of the method: as §1

[4] = test system: biotinyl-Ile-oxazolone; assay: self-aminoacylation, catalytic enhancement (BIO) (fold over background); higher = more active; k-Seq, kA / k0A0; sequences stand for … in GGGAAUGGAUCCACAUCUACGAAUUC…UUCACUGCAGACUUGACGAAGCUG
Summary of the method: as §1

[5] = test system: biotinyl-Trp-oxazolone; assay: self-aminoacylation, catalytic enhancement (BWO) (fold over background); higher = more active; k-Seq, kA / k0A0; sequences stand for … in GGGAAUGGAUCCACAUCUACGAAUUC…UUCACUGCAGACUUGACGAAGCUG
Summary of the method: as §1

[6] = test system: biotinyl-Phe-oxazolone; assay: self-aminoacylation, catalytic enhancement (BFO) (fold over background); higher = more active; k-Seq, kA / k0A0; sequences stand for … in GGGAAUGGAUCCACAUCUACGAAUUC…UUCACUGCAGACUUGACGAAGCUG
Summary of the method: as §1

Sequence | self-aminoacylation [1] | self-aminoacylation [2] | self-aminoacylation [3] | self-aminoacylation [4] | self-aminoacylation [5] | self-aminoacylation [6]
AUUACCCUGGUCAUCGACUUA [Fam2.1 aminoacylation ribozyme variant] | 0.818 | 0.544 | 0.636 | 0.596 | 0.414 | 0.425
CCACCAUUCAAGCAAUCGGUC [Fam1B.1 aminoacylation ribozyme variant] | 1.3 | 0.958 | 0.934 | 1.16 | 1.4 | 1.89
AUGUUUGCUAAUACUCGCAAG [Fam3.1 aminoacylation ribozyme variant] | 0.908 | 0.966 | 0.735 | 0.985 | 0.728 | 0.958
AUUACCCUGGUUAUCGAAUGA [Fam2.1 aminoacylation ribozyme variant] | 0.846 | 0.866 | 0.971 | 0.965 | 0.677 | 0.877
CCACCCUUCAAGCAAUCGGUU [Fam1B.1 aminoacylation ribozyme variant] | 1.67 | 1.91 | 1.42 | 1.47 | 4.11 | 2.79
UUUCACCUAGGUCGUCGGGUG [Fam2.2 aminoacylation ribozyme variant] | 2.27 | 2.44 | 2.75 | 1.9 | 3 | 11.2
UUUACCAUGGUCAUCGAGUGA [Fam2.1 aminoacylation ribozyme variant] | 4.57 | 7.39 | 7.28 | 4.43 | 9.91 | 20.9
CCACAAUUCAAGCAAUCGGUA [Fam1B.1 aminoacylation ribozyme variant] | 1.17 | 1.43 | 1.19 | 1.26 | 1.13 | 1.33
AUUCAGCGAGGUCAUCGGGUG [Fam2.2 aminoacylation ribozyme variant] | 5.33 | 7.8 | 6 | 4.46 | 7.06 | 44
GUUCACUUAGGUCAUCGGGUG [Fam2.2 aminoacylation ribozyme variant] | 3.12 | 6.01 | 4.97 | 3.48 | 5.21 | 27.9
AUUCACCUAGGUCGUCGGGUA [Fam2.2 aminoacylation ribozyme variant] | 1.95 | 2.71 | 2.24 | 1.85 | 1.95 | 6.61
AUUACCCUGAUCAUCGUGUGA [Fam2.1 aminoacylation ribozyme variant] | 2.67 | 5.65 | 5.72 | 2.37 | 5.88 | 27.5
CCACACUUCAAACAGUCGGUC [Fam1B.1 aminoacylation ribozyme variant] | 0.945 | 0.622 | 0.735 | 0.75 | 0.848 | 1.09
AUGACCCUGGUCAUCGAGCGA [Fam2.1 aminoacylation ribozyme variant] | 2.31 | 3.09 | 2.99 | 2.2 | 2.48 | 3.71
AUUACCCUGGGCAUAGAGUGA [Fam2.1 aminoacylation ribozyme variant] | 4.72 | 12.6 | 10.1 | 4.98 | 12.6 | 71.5
CUACUUCAAAGAAUCGGUCAG [Fam1A.1 aminoacylation ribozyme variant] | 0.658 | 0.601 | 0.574 | 0.652 | 0.818 | 1.48
AUUCACCUUGGUCAUCGGGUG [Fam2.2 aminoacylation ribozyme variant] | 4.97 | 9.96 | 7.9 | 4.71 | 7.43 | 55.7
AGUUUUGCUAAUAGUCGCAAG [Fam3.1 aminoacylation ribozyme variant] | 2.1 | 2.61 | 2.35 | 2.4 | 3.48 | 4.55
AUUCACCUAGGUCGUGGGGUG [Fam2.2 aminoacylation ribozyme variant] | 1.61 | 1.97 | 1.5 | 1.54 | 1.66 | 5.74
AUUCACCUAGGUCAUCGACUG [Fam2.2 aminoacylation ribozyme variant] | 0.6 | 0.553 | 0.561 | 0.564 | 0.318 | 0.459
CAACUUGAAACAAUCGGUCUG [Fam1A.1 aminoacylation ribozyme variant] | 1.11 | 1.36 | 1.24 | 1.15 | 1.02 | 1.36
UAGUUUGCUAAUAGUCGCAAC [Fam3.1 aminoacylation ribozyme variant] | 1.31 | 1.06 | 1.18 | 1.25 | 1.34 | 1.43
CUACUUCAUACAAUCGGUCUA [Fam1A.1 aminoacylation ribozyme variant] | 0.703 | 0.68 | 0.926 | 0.835 | 0.555 | 0.751
AUACAUCUAGGUCAUCGGGUG [Fam2.2 aminoacylation ribozyme variant] | 2.85 | 4.8 | 4.39 | 3.19 | 5.51 | 24.4
AUACACUUAGGUCAUCGGGUG [Fam2.2 aminoacylation ribozyme variant] | 3.3 | 6.18 | 5.5 | 3.82 | 5.82 | 36.6
CCAAACUUCAUGCAAUCGGUC [Fam1B.1 aminoacylation ribozyme variant] | 1 | 0.864 | 0.703 | 0.959 | 0.611 | 0.558

Sequence | self-aminoacylation [1] | self-aminoacylation [2] | self-aminoacylation [3] | self-aminoacylation [4] | self-aminoacylation [5] | self-aminoacylation [6]
CCACACUGCAAGCAAUUGGUC [Fam1B.1 aminoacylation ribozyme variant] | 0.956 | 0.961 | 0.87 | 1.14 | 0.59 | 0.969
UUUCACCUAGGUCAUCAGGUG [Fam2.2 aminoacylation ribozyme variant] | 1.7 | 1.52 | 1.79 | 1.58 | 1.52 | 1.36
GAGUUUGCUAAUAGUCGCAUG [Fam3.1 aminoacylation ribozyme variant] | 1.44 | 1.25 | 1.59 | 1.59 | 1.17 | 2.24
CUACUUCAAACAAUCGGUAUU [Fam1A.1 aminoacylation ribozyme variant] | 0.828 | 0.74 | 0.852 | 0.854 | 0.759 | 1.15
CUUCACCUAGGUCAUCGGGGG [Fam2.2 aminoacylation ribozyme variant] | 2.37 | 1.86 | 2.35 | 2.31 | 3.57 | 3.92
CUUCUUCAAACAAUCGGACUG [Fam1A.1 aminoacylation ribozyme variant] | 0.677 | 0.698 | 0.652 | 0.822 | 3.43 | 7.56
CUACAUCAAACAAACGGUCUG [Fam1A.1 aminoacylation ribozyme variant] | 0.901 | 0.771 | 1 | 1.07 | 1.09 | 1.01
AUUCACCUAGGUCGUCGGGCG [Fam2.2 aminoacylation ribozyme variant] | 3.2 | 4.5 | 2.56 | 3.39 | 2.76 | 15.2
CUUCACCUCGGUCAUCGGGUG [Fam2.2 aminoacylation ribozyme variant] | 4.37 | 5.57 | 5.17 | 3.54 | 5.07 | 44.6
AUUCACCCAGUUCAUCGGGUG [Fam2.2 aminoacylation ribozyme variant] | 2.72 | 2.6 | 2.52 | 2.48 | 2.33 | 10.8
AAUUUUGCCAAUAGUCGCAAG [Fam3.1 aminoacylation ribozyme variant] | 1.69 | 1.8 | 2.31 | 1.78 | 1.8 | 2.34
CGACUUCAAACACUCGGUCUG [Fam1A.1 aminoacylation ribozyme variant] | 1.52 | 1.39 | 1.61 | 1.33 | 2.31 | 2.7
AAGUGCGCUAAUAGUCGCAAG [Fam3.1 aminoacylation ribozyme variant] | 1.8 | 1.38 | 1.19 | 1.84 | 4.08 | 3.73
AUUCACCUAUGUCAUCUGGUG [Fam2.2 aminoacylation ribozyme variant] | 1.62 | 2.51 | 2.04 | 1.79 | 2.01 | 1.9
AAUAGCCUGGUCAUCGAGUGA [Fam2.1 aminoacylation ribozyme variant] | 4.05 | 4.95 | 4.77 | 4.15 | 7.5 | 18.6
AAGUUAGCUAAUAGUCCCAAG [Fam3.1 aminoacylation ribozyme variant] | 0.967 | 1 | 1.18 | 1.15 | 1.1 | 2.79
AAGUUAGCUAAUAGUUGCAAG [Fam3.1 aminoacylation ribozyme variant] | 1.33 | 1.59 | 1.45 | 1.47 | 2.07 | 1.8
CUACCUCAAACAAUCGGUCCG [Fam1A.1 aminoacylation ribozyme variant] | 1.18 | 1.9 | 1.15 | 1.04 | 1.2 | 1.05
AGUCACCUAGGUCAACGGGUG [Fam2.2 aminoacylation ribozyme variant] | 2.08 | 3.22 | 2.25 | 2.57 | 3.02 | 9.17
AUUACCCUGGAUAUCGAGUGA [Fam2.1 aminoacylation ribozyme variant] | 4.88 | 11.1 | 10.5 | 4.43 | 12.9 | 67.3
AUUACCCUGGUUUUCGAGUGA [Fam2.1 aminoacylation ribozyme variant] | 4.43 | 9.42 | 8.29 | 3.74 | 10.9 | 45.7
AUUACCCUCUUCAUCGAGUGA [Fam2.1 aminoacylation ribozyme variant] | 1.11 | 1.41 | 1.33 | 1.02 | 0.851 | 1.52
CAACACUUCAAGCAUUCGGUC [Fam1B.1 aminoacylation ribozyme variant] | 1.76 | 1.58 | 1.61 | 1.71 | 1.83 | 1.04
AUAACCGUGGUCAUCGAGUGA [Fam2.1 aminoacylation ribozyme variant] | 2.85 | 5.49 | 5.06 | 2.64 | 6.26 | 25.1
CCGCACUUCAAGCAAUCGGGC [Fam1B.1 aminoacylation ribozyme variant] | 2.52 | 1.69 | 1.35 | 1.92 | 2.11 | 2.26
